The text below walks through data of the supplement of paper PMC9112550, “Optimization of the antimicrobial peptide Bac7 by deep mutational scanning” (BMC Biology, 2022).

The test system of the data set is Escherichia coli TOP10. The data set is described as follows: shrunken log2 fold change of peptide-encoding DNA abundance (4.5 h post-induction vs induction); higher = less antimicrobial activity (less host growth inhibition). Conditions: time post-induction: 4.5 h; library: site-saturation at positions 5, 18, 19, 20.
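Also: peptides expressed intracellularly from a pBAD plasmid library in pooled LB shake-flask culture, induced with 0.3% L-arabinose, DNA abundance read by NGS, three biological replicates, DESeq2 with apeglm shrinkage.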

With RRIRERPPRLPRPRPRPFRYPRP, the “shrunken log2 fold change” value was -0.268.

With RRIRIRPPRLPRPRPRPFEDPRP, the “shrunken log2 fold change” value is -0.207.

Consider RRIRIRPPRLPRPRPRPGVIPRP, for which the “shrunken log2 fold change” value is -0.0127.

For RRIRSRPPRLPRPRPRPMEQPRP, the “shrunken log2 fold change” value is -0.00992.

As for RRIRKRPPRLPRPRPRPVTAPRP, the “shrunken log2 fold change” value was determined as 0.147.

Consider RRIRARPPRLPRPRPRPQLCPRP, for which the “shrunken log2 fold change” value amounted to 0.249.

Consider RRIRERPPRLPRPRPRPHSIPRP, for which the “shrunken log2 fold change” value was -0.0535.

For the sequence RRIRVRPPRLPRPRPRPSGPPRP, the “shrunken log2 fold change” value was -0.119.

Turning to RRIRMRPPRLPRPRPRPGVSPRP, the “shrunken log2 fold change” value is 0.461.

Take RRIRLRPPRLPRPRPRPFWTPRP: the “shrunken log2 fold change” value amounted to 0.0168.

For RRIRCRPPRLPRPRPRPEYAPRP, the “shrunken log2 fold change” value was found to be 0.204.

With RRIRERPPRLPRPRPRPMVSPRP, the “shrunken log2 fold change” value is -0.0769.

For RRIRCRPPRLPRPRPRPWRAPRP, the “shrunken log2 fold change” value turned out to be 0.0569.

RRIRPRPPRLPRPRPRPWTAPRP: the “shrunken log2 fold change” value was -0.305.

Consider RRIRVRPPRLPRPRPRPQGHPRP, for which the “shrunken log2 fold change” value was -0.177.

On to RRIRRRPPRLPRPRPRPCTQPRP, for which the “shrunken log2 fold change” value was found to be 0.207.

For RRIRPRPPRLPRPRPRPDPAPRP, the “shrunken log2 fold change” value came out at 0.326.

As for RRIRGRPPRLPRPRPRPRGMPRP, the “shrunken log2 fold change” value amounted to 0.939.

Regarding RRIRPRPPRLPRPRPRPCNMPRP, the “shrunken log2 fold change” value was determined as 0.0288.

Regarding RRIRPRPPRLPRPRPRPYDRPRP, the “shrunken log2 fold change” value was -0.319.

In the case of RRIRQRPPRLPRPRPRPWTSPRP, the “shrunken log2 fold change” value came out at 0.0602.

Take RRIRLRPPRLPRPRPRPLFFPRP: the “shrunken log2 fold change” value was 0.417.

As to RRIRDRPPRLPRPRPRPIKIPRP, the “shrunken log2 fold change” value is 0.0725.

For the sequence RRIRCRPPRLPRPRPRPHCLPRP, the “shrunken log2 fold change” value is -1.4.

For the sequence RRIRFRPPRLPRPRPRPCGHPRP, the “shrunken log2 fold change” value is -0.129.

Consider RRIRPRPPRLPRPRPRPWYAPRP, for which the “shrunken log2 fold change” value is -0.107.

On to RRIRQRPPRLPRPRPRPEVNPRP, for which the “shrunken log2 fold change” value is -0.142.

For the sequence RRIRHRPPRLPRPRPRPDCPPRP, the “shrunken log2 fold change” value was determined as 0.0615.

Consider RRIRSRPPRLPRPRPRPGIWPRP, for which the “shrunken log2 fold change” value is 0.123.

In the case of RRIRSRPPRLPRPRPRPEYQPRP, the “shrunken log2 fold change” value was 0.0227.

Consider RRIRPRPPRLPRPRPRPRWGPRP, for which the “shrunken log2 fold change” value was found to be 0.509.

RRIRKRPPRLPRPRPRPTDQPRP: the “shrunken log2 fold change” value was found to be 0.536.

With RRIRSRPPRLPRPRPRPHTMPRP, the “shrunken log2 fold change” value is -0.163.

In the case of RRIRVRPPRLPRPRPRPKCHPRP, the “shrunken log2 fold change” value was -0.242.

As to RRIRIRPPRLPRPRPRPRDYPRP, the “shrunken log2 fold change” value is -0.14.

RRIRVRPPRLPRPRPRPLCMPRP: the “shrunken log2 fold change” value is -0.123.

RRIRSRPPRLPRPRPRPIGLPRP: the “shrunken log2 fold change” value amounted to 0.074.

As to RRIRARPPRLPRPRPRPLQMPRP, the “shrunken log2 fold change” value was found to be 0.629.

For the sequence RRIRDRPPRLPRPRPRPHTTPRP, the “shrunken log2 fold change” value is -0.117.

For RRIRSRPPRLPRPRPRPCFEPRP, the “shrunken log2 fold change” value was -0.0192.

RRIRRRPPRLPRPRPRPLMMPRP: the “shrunken log2 fold change” value was 0.8.

Regarding RRIRGRPPRLPRPRPRPYHRPRP, the “shrunken log2 fold change” value was -0.203.

For RRIRRRPPRLPRPRPRPIGFPRP, the “shrunken log2 fold change” value turned out to be 0.0265.

For RRIRARPPRLPRPRPRPMHPPRP, the “shrunken log2 fold change” value turned out to be 0.362.

Regarding RRIRYRPPRLPRPRPRPVSPPRP, the “shrunken log2 fold change” value was -0.449.

Regarding RRIRNRPPRLPRPRPRPNRFPRP, the “shrunken log2 fold change” value came out at 0.0252.

Take RRIRMRPPRLPRPRPRPKKFPRP: the “shrunken log2 fold change” value is 0.358.

Take RRIRKRPPRLPRPRPRPELIPRP: the “shrunken log2 fold change” value is 0.0174.

With RRIRHRPPRLPRPRPRPLREPRP, the “shrunken log2 fold change” value is 0.819.

In the case of RRIRNRPPRLPRPRPRPPFRPRP, the “shrunken log2 fold change” value came out at 0.153.

For RRIRKRPPRLPRPRPRPKSFPRP, the “shrunken log2 fold change” value was -0.125.

As to RRIRGRPPRLPRPRPRPNWEPRP, the “shrunken log2 fold change” value was found to be 0.21.

As to RRIRFRPPRLPRPRPRPVETPRP, the “shrunken log2 fold change” value is -0.0497.

In the case of RRIRDRPPRLPRPRPRPYGCPRP, the “shrunken log2 fold change” value came out at 0.141.

Regarding RRIRRRPPRLPRPRPRPREMPRP, the “shrunken log2 fold change” value worked out at 0.513.

Turning to RRIRSRPPRLPRPRPRPKYHPRP, the “shrunken log2 fold change” value is -0.601.

Consider RRIRDRPPRLPRPRPRPTFPPRP, for which the “shrunken log2 fold change” value turned out to be 0.0873.

Consider RRIRGRPPRLPRPRPRPYWSPRP, for which the “shrunken log2 fold change” value was -0.251.

In the case of RRIRRRPPRLPRPRPRPEHTPRP, the “shrunken log2 fold change” value was -0.0248.

As to RRIRWRPPRLPRPRPRPFDQPRP, the “shrunken log2 fold change” value was -0.102.

Regarding RRIRHRPPRLPRPRPRPAALPRP, the “shrunken log2 fold change” value was -0.0796.

Take RRIRERPPRLPRPRPRPTTLPRP: the “shrunken log2 fold change” value was -0.325.

Regarding RRIRRRPPRLPRPRPRPGHAPRP, the “shrunken log2 fold change” value came to 0.398.

As for RRIRYRPPRLPRPRPRPCQIPRP, the “shrunken log2 fold change” value is -0.00804.

Regarding RRIRFRPPRLPRPRPRPCIKPRP, the “shrunken log2 fold change” value is -0.0867.

As to RRIRGRPPRLPRPRPRPSEDPRP, the “shrunken log2 fold change” value is 0.71.

RRIRQRPPRLPRPRPRPENRPRP: the “shrunken log2 fold change” value came out at 0.0211.

For RRIRWRPPRLPRPRPRPPEHPRP, the “shrunken log2 fold change” value was 0.544.

As to RRIRMRPPRLPRPRPRPGQEPRP, the “shrunken log2 fold change” value amounted to 0.605.

As for RRIRLRPPRLPRPRPRPQFLPRP, the “shrunken log2 fold change” value is -0.0896.

As for RRIRSRPPRLPRPRPRPGFSPRP, the “shrunken log2 fold change” value is -0.0153.

For RRIRGRPPRLPRPRPRPTMEPRP, the “shrunken log2 fold change” value came out at 0.751.

Consider RRIRRRPPRLPRPRPRPTIHPRP, for which the “shrunken log2 fold change” value was -0.0346.

Take RRIRVRPPRLPRPRPRPFVCPRP: the “shrunken log2 fold change” value is -0.744.

RRIRFRPPRLPRPRPRPMKEPRP: the “shrunken log2 fold change” value was -0.187.

In the case of RRIRTRPPRLPRPRPRPWLPPRP, the “shrunken log2 fold change” value is -0.164.

RRIRARPPRLPRPRPRPNAVPRP: the “shrunken log2 fold change” value came to 0.0101.

Regarding RRIRTRPPRLPRPRPRPHGFPRP, the “shrunken log2 fold change” value is -0.0139.

For RRIRERPPRLPRPRPRPLRNPRP, the “shrunken log2 fold change” value is 0.308.

On to RRIRTRPPRLPRPRPRPQMTPRP, for which the “shrunken log2 fold change” value was 0.0824.

Take RRIRCRPPRLPRPRPRPCDTPRP: the “shrunken log2 fold change” value was -0.0925.

For RRIRFRPPRLPRPRPRPAENPRP, the “shrunken log2 fold change” value is -0.134.

For RRIRWRPPRLPRPRPRPRHEPRP, the “shrunken log2 fold change” value is -0.0681.

For the sequence RRIRCRPPRLPRPRPRPEHEPRP, the “shrunken log2 fold change” value was 0.188.

RRIRRRPPRLPRPRPRPSGQPRP: the “shrunken log2 fold change” value was determined as 0.306.

Take RRIRARPPRLPRPRPRPKSSPRP: the “shrunken log2 fold change” value came out at 0.188.

Turning to RRIRCRPPRLPRPRPRPTGHPRP, the “shrunken log2 fold change” value was -0.113.

Take RRIRDRPPRLPRPRPRPWVHPRP: the “shrunken log2 fold change” value is -0.0818.

Consider RRIRMRPPRLPRPRPRPDMEPRP, for which the “shrunken log2 fold change” value stood at 0.00931.

As to RRIRHRPPRLPRPRPRPVYWPRP, the “shrunken log2 fold change” value was -0.262.

In the case of RRIRERPPRLPRPRPRPVVYPRP, the “shrunken log2 fold change” value is -0.945.

For RRIRYRPPRLPRPRPRPQKNPRP, the “shrunken log2 fold change” value is -0.555.

RRIRFRPPRLPRPRPRPAICPRP: the “shrunken log2 fold change” value turned out to be 0.00851.

Turning to RRIRYRPPRLPRPRPRPTYEPRP, the “shrunken log2 fold change” value is 4.06.

On to RRIRNRPPRLPRPRPRPMGFPRP, for which the “shrunken log2 fold change” value is -0.0516.

For RRIRWRPPRLPRPRPRPFFHPRP, the “shrunken log2 fold change” value is -0.194.

On to RRIRKRPPRLPRPRPRPCDWPRP, for which the “shrunken log2 fold change” value is -0.0282.

For RRIRPRPPRLPRPRPRPTSFPRP, the “shrunken log2 fold change” value amounted to 0.0509.

As for RRIRTRPPRLPRPRPRPSQAPRP, the “shrunken log2 fold change” value turned out to be 0.0983.

Turning to RRIRMRPPRLPRPRPRPGHMPRP, the “shrunken log2 fold change” value is -0.203.

In the case of RRIRWRPPRLPRPRPRPQDAPRP, the “shrunken log2 fold change” value is -0.0395.

Consider RRIRMRPPRLPRPRPRPKTAPRP, for which the “shrunken log2 fold change” value stood at 2.56.

For RRIRRRPPRLPRPRPRPKCTPRP, the “shrunken log2 fold change” value is -0.373.

Regarding RRIRYRPPRLPRPRPRPHWEPRP, the “shrunken log2 fold change” value is -0.276.

In the case of RRIRYRPPRLPRPRPRPSPYPRP, the “shrunken log2 fold change” value was -0.709.

As for RRIRHRPPRLPRPRPRPKATPRP, the “shrunken log2 fold change” value turned out to be 0.00379.

Turning to RRIRKRPPRLPRPRPRPTSYPRP, the “shrunken log2 fold change” value was -0.152.

Turning to RRIRHRPPRLPRPRPRPWREPRP, the “shrunken log2 fold change” value is -0.0297.

RRIRLRPPRLPRPRPRPGTYPRP: the “shrunken log2 fold change” value is 0.386.

Turning to RRIRCRPPRLPRPRPRPVGWPRP, the “shrunken log2 fold change” value worked out at 0.64.

As for RRIRDRPPRLPRPRPRPMPDPRP, the “shrunken log2 fold change” value was -0.00281.

As for RRIRKRPPRLPRPRPRPYCAPRP, the “shrunken log2 fold change” value is -0.254.

Consider RRIRWRPPRLPRPRPRPRGKPRP, for which the “shrunken log2 fold change” value was determined as 0.227.

On to RRIRVRPPRLPRPRPRPPYNPRP, for which the “shrunken log2 fold change” value is -0.1.

Turning to RRIRPRPPRLPRPRPRPTFDPRP, the “shrunken log2 fold change” value was -0.0186.

Regarding RRIRKRPPRLPRPRPRPADWPRP, the “shrunken log2 fold change” value is 0.666.

As for RRIRKRPPRLPRPRPRPDGNPRP, the “shrunken log2 fold change” value was found to be 0.00833.

As for RRIRIRPPRLPRPRPRPGSPPRP, the “shrunken log2 fold change” value is -0.19.

As for RRIRNRPPRLPRPRPRPYIQPRP, the “shrunken log2 fold change” value was -0.244.

For RRIRIRPPRLPRPRPRPQDWPRP, the “shrunken log2 fold change” value was -0.344.

Regarding RRIRARPPRLPRPRPRPAHMPRP, the “shrunken log2 fold change” value is -0.114.

With RRIRARPPRLPRPRPRPNYMPRP, the “shrunken log2 fold change” value is -0.2.

As for RRIRFRPPRLPRPRPRPNIEPRP, the “shrunken log2 fold change” value is -0.288.

Regarding RRIRPRPPRLPRPRPRPDNHPRP, the “shrunken log2 fold change” value is -0.521.

For RRIRARPPRLPRPRPRPNSPPRP, the “shrunken log2 fold change” value was -0.138.
